These results are taken from patent publication US10772972B2, “Anti-STEAP2 antibody drug conjugates, and compositions and uses thereof” (Regeneron Pharmaceuticals, Inc., priority 2016, dated 2020).

The test system of assay [1] is C4-2 cells (high-STEAP2 expressing). The assay is described as follows: Internalization and total binding on C4-2 cells (imaging, qualitative score). Type of assay: cell-based, human. Set-up: key: − (no internalization or binding); +(weak internalization or binding); ++(moderate internalization or binding); +++(robust internalization or binding). To be noted: 10 μg/ml antibody. Here is the method:
Briefly, 20,000 C4-2 cells were seeded in PDL coated 96 well plates. The next day, cells were incubated with anti-human STEAP2 antibodies (10 μg/ml) for 30 min on ice followed by two PBS washes. Cells were then incubated with alexa488-conjugated anti-hFc Fab secondary antibody for 30 minutes on ice, followed by two additional PBS washes. Antibodies were allowed to internalize for 1 h at 37° C. in internalization buffer (PBS+2% FBS) or were maintained at 4° C. Cells were fixed in 4% formaldehyde, nuclei were stained with DRAQ5 (Cell signaling), and images were acquired on the ImageXpress micro XL (Molecular Devices).
A qualitative visual assessment of the total binding intensity and the intensity of antibodies that had internalized into vesicles was performed and scored according to the following criteria: − (no internalization or binding), +(weak internalization or binding), ++(moderate internalization or binding) and +++(robust internalization or binding).

Another assay relates to monkey PBMCs. The assay is described as follows: T cell proliferation assay, cynomolgus PBMC. Type of assay: cell-based. The conditions noted are these: for Cynomolgus PBMC proliferation activity (in words): across donors tested. Here is the method: Thawed human or freshly isolated monkey PBMCs (50,000 cells/well) were incubated with 3-fold (human, concentration range: 5E-10M to 2.82E-15M; cynomolgus, concentration range: 1E-09M to 4.57E-13M) serial dilutions of STEAP2×CD3 bispecifics or isotype control in complete medium (RPMI supplemented with 10% FBS, 100 U/mL penicillin, 100 μg/mL streptomycin, 292 μg/mL L-glutamine) and a fixed concentration (human: 200 ng/mL, cyno: 500 ng/mL) of a commercial anti-CD28 antibody (Biolegend, Catalog #302914) in white flat bottom 96-well plates for 72 hours at 37° C. Isolated monkey PBMCs were from two donors (identified as mk8781M or mk9381M). Following incubation, CellTiter Glo® (Promega, Cat #7573) was added and luminescence, as readout for cell viability, was measured using a VICTOR X5 multi-label plate reader. Cell titer was calculated by dividing the luminescence of stimulated cells by the baseline luminescence of unstimulated cells.

A further assay relates to cynomolgus T cells. The assay is described as follows: FACS binding titration of STEAP2xCD3 bispecifics on cynomolgus T cells. To be noted: 66.6 nM to 0.001 nM, 30 minutes at 4° C. Here is the method:
FACS Binding Titration on Jurkat Cells, PC3_STEAP2/1 Cells and cynomolgus T Cells: Flow cytometric analysis was utilized to determine binding of STEAP2×CD3 bispecific antibodies to Jurkat, PC3_STEAP2/1 chimeric and cynomolgus T cells, followed by detection with a phycoerythrin (PE)-labeled anti-human IgG antibody. Briefly, 2×10^5 cells/well were incubated for 30 minutes at 4° C. with a serial dilution of STEAP2×CD3 bispecific antibodies or control antibody (a human IgG1 antibody that binds a feline antigen with no cross-reactivity to STEAP2 or human or cynomolgus CD3) ranging from 66.6 nM to 0.001 nM. After incubation, the cells were washed twice with cold PBS containing 1% filtered FBS and a PE-conjugated anti-human secondary antibody was added to the cells and incubated for an additional 30 minutes. Wells containing no antibody or secondary antibody only were used as a control. After incubation, cells were washed, re-suspended in 200 μL cold PBS containing 1% filtered FBS and analyzed by flow cytometry on a BD FACS Canto II.
(In general: Flow cytometry measures light scatter and fluorescence of single cells or particles in a stream.)

Assay [2] has as its system human prostate cancer C4-2 cells (xenograft). The assay is described as follows: C4-2/human PBMC co-implant xenograft in NSG mice, immediate dosing. It counts as in vivo, mouse. The conditions noted are these: C4-2/NSG; for Tumor growth compared to isotype control at study endpoint (in words): 0.1 or 0.01 mg/kg. An excerpt: To assess the in vivo efficacy of the anti-STEAP2/anti-CD3 bispecifics in human tumor xenograft studies, NOD scid gamma (NSG) mice (Jackson Laboratories, Bar Harbor, Me.) were co-implanted with human peripheral blood mononuclear cells (PBMCs; ReachBio LLC., Seattle, Wash.) along with human prostate cancer C4-2 cells (MD Anderson Cancer Center, Houston Tex.) which endogenously express STEAP2.
Briefly, 5.0×10^6 C4-2 cells were co-implanted subcutaneously (s.c.) with 1.25×10^6 human PBMCs in a 50:50 mix of matrigel matrix (BD Biosciences, San Jose, Calif.) into the right flank of male NSG mice. Mice were treated intraperitoneally (i.p.) on the day of implantation (immediate treatment model) with anti-STEAP2/anti-CD3 bispecifics BSSTEAP2/CD3-001, BSSTEAP2/CD3-002 or BSSTEAP2/CD3-003, or an isotype control, at a dose of 0.1 or 0.01 mg/kg (N=5 mice/group).
Tumor size was measured 2×/week using calipers and tumor volume calculated as Volume=(length×width^2)/2. Data is shown as tumor size (mm^3) at study endpoint, 46 d post-tumor implantation (Table 7).

The mark [3] stands for this setting: 0.01 mg/kg i.p. on day of implantation.
[4] abbreviates: 0.1 mg/kg i.p. on day of implantation.

B1: H1H11880P: anti-STEAP2 antibody, HCVR/LCVR SEQ ID NOs 34/42 (antibody, V domains shown)
VH: EVQLVESGGGLVQPGGSLRLSCAASGFTFSTYAMHWVRQAPGKGLQHVSTISTNGVNTYYADSVKGRFTISRDNSKSTLYLQMGSLRAEDMAVYYCARDKDFWSGYFDYWGQGTLVTVSS
VL: EIVMTQSPGTLSVSPGERATLSCRASQSVSSNLAWYHQKPGQAPRLLIYGASTRATGFPARFSGSGSGTEFTLTISSLQSEDFAAYYCQQYNNWPITFGQGTRLEIK
Consider B1, for which, in assay [1], the “Internalization (37° C., 1 h) Qualitative Score” value (“Internalization” for short) is reported as “+” and the “Total Binding (4° C.) Qualitative Score” value is recorded as “+”.

B2: BSSTEAP2/CD3-004: STEAP2×CD3 bispecific: anti-STEAP2 H1H7814N (SEQ 218), anti-CD3 H1H7251P (SEQ 1570), common LCVR SEQ 226 (antibody, V domains shown)
VH 1: QVQLVESGGGVVQPGRSLRLSCVASGFTISSYGMNWVRQAPGKGLEWVAVISYDGGNKYSVDSVKGRFTISRDNSKNTLYLQMNSLRAEDSAVYYCARGRYFDLWGRGTLVTVSS
VH 2: EVQLVESGGGLVQPGRSLRLSCAASGFTFADYTMHWVRQGPGTGLEWVSDIGWSGGSLGYADSVKGRFTISRDNAKNSLYLEMNNLRPEDTALYYCVKDKSGYGKFQYGLDVWGQGTTVTVSS
VL: DIQMTQSPSTLSASVGDRVTITCRASQSISSWLAWYQQKPGRAPNLLISKASSLKSGVPSRFSGSGSGTEFTLTVSSLQPDDFATYYCQQYYSYSYTFGQGTKLEIK
Take B2: in the assay with monkey PBMCs, the “Cynomolgus PBMC proliferation activity (in words)” value is given as “donor dependent”. Also, the EC50 in the assay with cynomolgus T cells was found to be 1.99 nM.

B3: H1H7814N: human-Fc anti-STEAP2 antibody, HCVR/LCVR SEQ ID NOs 218/226 (antibody, V domains shown)
VH: QVQLVESGGGVVQPGRSLRLSCVASGFTISSYGMNWVRQAPGKGLEWVAVISYDGGNKYSVDSVKGRFTISRDNSKNTLYLQMNSLRAEDSAVYYCARGRYFDLWGRGTLVTVSS
VL: DIQMTQSPSTLSASVGDRVTITCRASQSISSWLAWYQQKPGRAPNLLISKASSLKSGVPSRFSGSGSGTEFTLTVSSLQPDDFATYYCQQYYSYSYTFGQGTKLEIK
modifications: human Fc
For the molecule B3, in assay [1], the “Internalization” value is given as “+” and the “Total Binding (4° C.) Qualitative Score” value is given as “+”.

B4: BSSTEAP2/CD3-002: STEAP2×CD3 bispecific: anti-STEAP2 HCVR H2M11162N (SEQ 250), anti-CD3 HCVR CD3-VH-G5 (SEQ 1762), common LCVR SEQ 258 (antibody, V domains shown)
VH 1: QVQLQQSGPGLVKPSQTLSLTCAISGDSVSSNRAAWNWIRQSPSRGLQWLGRTYYRSKWYNDYAVSLRSRITINPVTSKNQVALHMNSVTPEDTAVYYCARAGIVVVPGPETFYYYDHGLDVWGQGTTVTVSS
VH 2: EVQLVESGGGLVQPGRSLRLSCAASGFTFDDYSMHWVRQAPGKGLEWVSGISWNSGSIGYADSVKGRFTISRDNAKNSLYLQMNSLRAEDTALYYCAKDGSGYGKFYYYGMDVWGQGTTVTVSS
VL: DIQMTQSPSSLSASVGDRVTITCRASQSIRSYLNWYQQKPGKAPELLIHAASSLQSGVPSRFSGSGSGTDFTLTISSLQPEDFASYYCQQSYSAPPITFGQGTRLEIK
For B4, the “Tumor Size (mm^3) 46 d post-tumor implantation (mean ± SD)” value in assay [2] (setting [3]) is on record as 17.0 ± 8.0 mm^3; in assay [2] (setting [4]), 15.0 ± 12.0 mm^3. For the same molecule, the “Tumor growth compared to isotype control at study endpoint (in words)” value in assay [2] is listed as “significantly suppressed tumor growth”.

B5: H2M11162N: anti-STEAP2 antibody, mouse IgG2 Fc, HCVR/LCVR SEQ ID NOs 250/258 (antibody, V domains shown)
VH: QVQLQQSGPGLVKPSQTLSLTCAISGDSVSSNRAAWNWIRQSPSRGLQWLGRTYYRSKWYNDYAVSLRSRITINPVTSKNQVALHMNSVTPEDTAVYYCARAGIVVVPGPETFYYYDHGLDVWGQGTTVTVSS
VL: DIQMTQSPSSLSASVGDRVTITCRASQSIRSYLNWYQQKPGKAPELLIHAASSLQSGVPSRFSGSGSGTDFTLTISSLQPEDFASYYCQQSYSAPPITFGQGTRLEIK
modifications: mouse IgG2 Fc
For the molecule B5, in assay [1], the “Internalization” value is listed as “+++” and the “Total Binding (4° C.) Qualitative Score” value is listed as “+++”.

B6: BSSTEAP2/CD3-006: STEAP2×CD3 bispecific: anti-STEAP2 H1H11162 (SEQ 250), anti-CD3 CD3-VH-P (SEQ 1882), common LCVR SEQ 258 (antibody, V domains shown)
VH 1: QVQLQQSGPGLVKPSQTLSLTCAISGDSVSSNRAAWNWIRQSPSRGLQWLGRTYYRSKWYNDYAVSLRSRITINPVTSKNQVALHMNSVTPEDTAVYYCARAGIVVVPGPETFYYYDHGLDVWGQGTTVTVSS
VH 2: EVQLVESGGGLVQPGRSLRLSCVASGFTFDDYSMHWVRQAPGKGLEWVSGISWNSGSKDYADSVKGRFTISRDNAKNSLYLQMNSLRAEDTALYYCAKYGSGYGKFYHYGLDVWGQGTTVTVSS
VL: DIQMTQSPSSLSASVGDRVTITCRASQSIRSYLNWYQQKPGKAPELLIHAASSLQSGVPSRFSGSGSGTDFTLTISSLQPEDFASYYCQQSYSAPPITFGQGTRLEIK
In the case of B6, the “Cynomolgus PBMC proliferation activity (in words)” value in the assay with monkey PBMCs was “induced robust cynomolgus PBMC proliferation in all donors tested”. Moreover, the EC50 came to 1.53e-11 M with monkey PBMCs (donor mk9381M, anti-CD28 500 ng/mL, 72 hours, read-out: Cyno PBMC Proliferation [M] (donor)) and 7.99 nM in the assay with cynomolgus T cells.

B7: H2M11164N: anti-STEAP2 antibody, mouse IgG2 Fc, HCVR/LCVR SEQ ID NOs 282/290 (antibody, V domains shown)
VH: QVQLQQSGPGLVKPSQTLSLTCVISGDSVSTNSAAWNWIRQSPSRGLEWLGRTYYRSKWYNDYAVSVRSRITINPVTSKNQVALHLNSVTPEDTAVYYCARAGIVVVPGPETYYYYYHGLDVWGQGTTVTVSS
VL: DIQMTQSPSSLSASVGDRVTITCRASQNIRSYLNWYQQKPGKAPKLLIHVASSLQSGVPSRFSGSGSGTDFTLTISSLQPEDFATYYCQQSYSTPPITFGHGTRLEIK
modifications: mouse IgG2 Fc
Take B7: in assay [1], the “Internalization” value is on record as “+++” and the “Total Binding (4° C.) Qualitative Score” value is reported as “+++”.

B8: BSSTEAP2/CD3-003: STEAP2×CD3 bispecific: anti-STEAP2 HCVR H2M11162N (SEQ 250), anti-CD3 HCVR CD3-VH-G20 (SEQ 1866), common LCVR SEQ 258 (antibody, V domains shown)
VH 1: QVQLQQSGPGLVKPSQTLSLTCAISGDSVSSNRAAWNWIRQSPSRGLQWLGRTYYRSKWYNDYAVSLRSRITINPVTSKNQVALHMNSVTPEDTAVYYCARAGIVVVPGPETFYYYDHGLDVWGQGTTVTVSS
VH 2: EVQLVESGGGLVQPGRSLRLSCAASGFTFDDYSMHWVRQAPGKGLEWVSGISWNSGSIGYADSVKGRFTISRDNAKNSLYLQMNSLRAEDTALYYCAKYGSGYGKFYYYGMDVWGQGTTVTVSS
VL: DIQMTQSPSSLSASVGDRVTITCRASQSIRSYLNWYQQKPGKAPELLIHAASSLQSGVPSRFSGSGSGTDFTLTISSLQPEDFASYYCQQSYSAPPITFGQGTRLEIK
On to B8, for which the entries for the “Tumor Size (mm^3) 46 d post-tumor implantation (mean ± SD)” value in assay [2] (setting [3]) and in assay [2] (setting [4]) were 25.0 ± 21.0 mm^3 and 19.0 ± 12.0 mm^3, respectively. For the same molecule, the “Tumor growth compared to isotype control at study endpoint (in words)” value in assay [2] is on record as “significantly suppressed tumor growth”.
